Reference: publication PMC7112951, “Structures of the ATP-fueled ClpXP proteolytic machine bound to protein substrate” (eLife, 2020)

Target: the molecule itself
Test: cryo-EM structure; ClpX^∆N pseudohexamer 4 µM and ClpP14 1.8 µM (2 µM in the results) in EM buffer (20 mM HEPES, pH 7.5, 100 mM KCl, 25 mM MgCl2, 5 mM ATPγS), 5 min at 25°C before vitrification; doubly capped complexes analysed

B1: one ClpX^∆N E185Q subunit (unit) of the single-chain pseudohexamer (domain or fragment)
chain: not shown
notes: ClpX, E. coli K12, residues 62-424 (ClpX^∆N); In the sample the six units are joined on one chain by six-residue linkers; written alone for the contacts between neighbouring units; also called ClpX^∆N subunit; subunits A-F; source: E. coli strain ER2566, purified, as part of the single-chain pseudohexamer m1
stoichiometry N: 6
